Laboratory results published in FireProtDB (doi:10.1021/bi972395d).
Several values for one entry are separate records, joined by “and”; a condition that tells them apart may be missing. Equal values may be shown once.

B1: Superoxide dismutase [Mn], mitochondrial, P04179 (parent)
chain: MLSRAVCGTSRQLAPVLGYLGSRQKHSLPDLPYDYGALEPHINAQIMQLHHSKHHAAYVNNLNVTEEKYQEALAKGDVTAQIALQPALKFNGGGHINHSIFWTNLSPNGGGEPKGELLEAIKRDFGSFDKFKEKLTAASVGVQGSGWGWLGFNKERGHLQIAACPNQDPLQGTTGLIPLLGIDVWEHAYYLQYKNVRPDYLKAIWNVINWENVTERYMACKK

Variants of: B1
Details: Homo sapiens; pH 7.8; 70 °C; Thermal; DSC; potassium phosphate 2 mM; transition: 2; reversible: Yes; structure 1N0J; whole UniProt chain shown

Row | Variant | ddG of mutation (higher = less stable)
1 | Q167N | -2.79 kcal/mol

Same assay, conditions: Homo sapiens; pH 7.8; 88.9 °C; Thermal; DSC; potassium phosphate 2 mM; transition: 2; reversible: Yes; structure 1N0J; whole UniProt chain shown

Row | Variant | ddG of mutation (higher = less stable)
2 | Q167N | -0.06 kcal/mol

Same assay, conditions: Homo sapiens; pH 7.8; Thermal; DSC; potassium phosphate 2 mM; transition: 2; reversible: Yes; structure 1N0J; whole UniProt chain shown

Row | Variant | unfolding enthalpy (calorimetric)
3 | Q167N | 100 kcal/mol and 78.3 kcal/mol
